Paper PMC9604149, “Evolution of the vls Antigenic Variability Locus of the Lyme Disease Pathogen and Development of Recombinant Monoclonal Antibodies Targeting Conserved VlsE Epitopes” (Microbiology Spectrum, 2022)
Changes are numbered by the printed parent chain.

B1: recombinant monoclonal antibody 15E2-1 (antibody, V domains shown)
VH: QSLEESGGGLFKPTDTLTLTCTVSGIDLSSYAMIWVRQAPGKGLEWIGYIWSSGRIWYASWAKGRFTISRTSTTVDLKLASPTTEDTATYFCARLWDIWGPGTLVTVSS
VL: AQVLTQTPSSVSAAVGGTVTISCQASQSLYNGVNLAWYQQKPGQPPKLLIFGASNLESGVSSRFRGSGSGTQFTLTISGVQCDDAATYYCLGEFSCSSADCLAFGGGTEVVVK
notes: the antibody was detected with an anti-rabbit IgG secondary antibody; Only the variable regions are printed; also called anti-IR4 rMAb; source: made by GenScript
B2: recombinant monoclonal antibody 1D11-4 (antibody, V domains shown)
VH: QSLVESGGGLVQPEGSLTLTCKASGFSFSSGYDMCWVRQAPGKGLEYIACIDAGDDITHYASWVKGRFTVSKTSSTTVTLQLNSLTVADTATYFCGRFWDLWGPGTLVTVSS
VL: SSVLTQTPSPVSAAVGGTVTINCQSSQSVYDSTWLGWYQQKPGQPPKLLIYKASNLASGVPSRFKGSGSGTHFTLTISDLECDDAATYYCVGGYSGSVDNWAFGGGTEVVVK
notes: the antibody was detected with an anti-rabbit IgG secondary antibody; Only the variable regions are printed; also called anti-IR6 rMAb; source: made by GenScript
B3: recombinant monoclonal antibody 17A8-1 (antibody, V domains shown)
VH: QSVEESGGRLVTPGTPLTLTCTVSGFPLSSYSMAWVRQAPGKGLEYIGFINTDGSAYYASWAKGRITISKTSTTVELKITSPTTEDTATYFCGTGNIWGPGTLVTVSS
VL: AQVLTQTPSSVSAAVGGTVTINCQASQSVSNNNVLAWFQQKPGQPPKRLIYSALTLDSGVPSRFKGSGSGTHFTLTISGVQCDDAATYYCAGGYDCSSNDCIAFGGGTEVVVK
notes: as for B1
B4: recombinant monoclonal antibody 28D3-1 (antibody, V domains shown)
VH: B3 VH with P27S, A34G, F49M, N51I, T52S, D53N, G54N, A56T
VL: B3 VL with S9A, V29T, V34A, A103T
notes: as for B1
B5: antibody in the supernatant of rabbit B cell line 15E2 (antibody, V domains shown)
VH: B1 VH
VL: B1 VL
notes: Unpurified antibody of the cell line
B6: antibody in the supernatant of rabbit B cell line 1D11 (antibody, V domains shown)
VH: B2 VH
VL: B2 VL
notes: Unpurified antibody of the cell line; also called anti-IR6 1D11 cell line
B7: antibody in the supernatant of rabbit B cell line 17A8 (antibody, V domains shown)
VH: B3 VH
VL: B3 VL
notes: as for B5
B8: antibody in the supernatant of rabbit B cell line 28D3 (antibody, V domains shown)
VH: B3 VH with P27S, A34G, F49M, N51I, T52S, D53N, G54N, A56T
VL: B3 VL with S9A, V29T, V34A, A103T
notes: as for B5

biological target: T1, recombinant VlsE protein (of strain B31) (Borreliella burgdorferi B31 (clone …, UniProt O06878)); test: ELISA; validation of the specificity of the purified rMAbs: antigen (IR peptide or VlsE) fixed on the plate; dilution not told; details: both partners purified
T1 construct: VlsE of B. burgdorferi B31, clone B31-5A3: the 585-bp vlsE cassette region (including the IR1 through VR6 regions), codon-optimized; 585 bp would encode about 195 residues; also called recombinant B31 VlsE; vlsE cassette; source: E. coli BL21 (pET24), purified (Ni-NTA); estimated purity ~65%

Row | Binder | binding result
1 | B1 | binds
2 | B2 | binds
3 | B3 | binds
4 | B4 | binds

biological target: T1, recombinant VlsE protein (of strain B31); test: ELISA; antigen (IR peptide or recombinant VlsE) coated on a 96-well plate at 10 ug/mL overnight at 4 C, blocked with 5% milk; supernatants of rabbit B cell lines applied; HRP anti-rabbit IgG secondary 1:30,000; OD450; reactive if more than 3 SD above the mean BSA reactivity; details: one partner purified

Row | Binder | binding result
5 | B5 | binds
6 | B6 | binds
7 | B7 | binds
8 | B8 | binds
